Holding throughout (type): binding
The target of test [1] is T1, recombinant human collagen type II (h Col II) (Homo sapiens, UniProt P02458).
T1 construct: purchased Chondrex CHX-20051
Description: KD-determination by ELISA vs human collagen type II. As to conditions: type II collagen; tetramers: of different species. As for the experimental part:
(§1) High binding plates (Greiner, 781061) were immobilized with 2.5 μg/ml recombinant human collagen type II (h Col II, Chondrex, CHX-20051), rabbit collagen type II (rbCol II, prepared from rabbit eyes), porcine collagen type II (p Col II, prepared from porcine eyes), human collagen type I, (h Col I, Sigma, C5483-1MG), human collagen type V (h Col V, Abcam, ab7537), human collagen type III (h Col Ill, Abcam, ab7535) and 67B89 (domain of fibronectin, produced in E. coli) respectively over night at 4° C. ELISA-plates were washed 3 times with PBST (PBS+ 0.1% Tween) and blocked with 3% BSA/0.5% Tween/PBS 2 h at RT. After washing with PBST, dilution series of 1.1 μM to 7×10^−4 nM of dimers (CID 211999, CID 212000), dilution series of 100 nM to 7×10^−6 nM of tetramers (CID 212001 and CID 212704) and dilution series of 10 μM to 2 nM of dimer (CID 212705) were incubated on ELISA-plates 1 h at rt. Plates were washed with PBST and incubated with biotinylated anti-StrepTag-ab (Antikörper-online, ABIN1573895) with a dilution of 1:10.000 for 1 h at rt. The binding was visualized with a-rabbit-IgG-HRP (Sigma, A9169) with a dilution of 1:10.000 and as substrate TMB Plus von KEM EN TEC Diagnostic, Kat-Nr. 4395.
(An ELISA detects its analyte on a solid surface through an enzyme-linked reagent.)

A further test addresses T2, human collagen type III (Homo sapiens, UniProt P02461).
T2 construct: purchased Abcam ab7535
T2 sequence (P02461 154-1221 limits assumed): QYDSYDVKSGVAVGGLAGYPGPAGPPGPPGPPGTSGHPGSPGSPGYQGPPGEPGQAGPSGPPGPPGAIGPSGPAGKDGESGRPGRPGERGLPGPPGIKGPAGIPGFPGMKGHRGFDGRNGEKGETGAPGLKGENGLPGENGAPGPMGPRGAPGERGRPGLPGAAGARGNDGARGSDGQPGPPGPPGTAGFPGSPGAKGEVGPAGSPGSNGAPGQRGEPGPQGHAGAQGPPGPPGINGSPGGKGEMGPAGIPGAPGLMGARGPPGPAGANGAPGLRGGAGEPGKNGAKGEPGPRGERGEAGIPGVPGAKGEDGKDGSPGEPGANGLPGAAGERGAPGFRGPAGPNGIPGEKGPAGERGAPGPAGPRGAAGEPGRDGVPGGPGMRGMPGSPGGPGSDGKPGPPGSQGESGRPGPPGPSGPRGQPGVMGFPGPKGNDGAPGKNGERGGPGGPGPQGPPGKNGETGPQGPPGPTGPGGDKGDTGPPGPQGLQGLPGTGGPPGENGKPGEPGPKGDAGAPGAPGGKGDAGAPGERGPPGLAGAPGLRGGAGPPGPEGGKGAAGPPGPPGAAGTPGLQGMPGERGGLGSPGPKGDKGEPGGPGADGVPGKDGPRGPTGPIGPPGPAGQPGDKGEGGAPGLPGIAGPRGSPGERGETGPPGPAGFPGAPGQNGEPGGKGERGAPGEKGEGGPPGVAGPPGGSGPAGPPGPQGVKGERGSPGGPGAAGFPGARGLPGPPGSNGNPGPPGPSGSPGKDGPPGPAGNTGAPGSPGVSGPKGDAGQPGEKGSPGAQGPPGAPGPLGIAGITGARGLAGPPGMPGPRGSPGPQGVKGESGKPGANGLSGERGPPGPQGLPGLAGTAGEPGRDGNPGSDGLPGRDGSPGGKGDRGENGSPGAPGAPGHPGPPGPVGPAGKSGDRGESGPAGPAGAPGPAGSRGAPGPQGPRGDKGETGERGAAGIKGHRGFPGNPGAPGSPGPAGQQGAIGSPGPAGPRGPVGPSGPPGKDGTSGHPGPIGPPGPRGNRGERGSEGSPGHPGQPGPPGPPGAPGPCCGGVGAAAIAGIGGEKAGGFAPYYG
The test can be described thus: ELISA specificity vs human collagen type III. How it is done: as §1

Test [2] addresses T3, 67B89 (domain of fibronectin) (Homo sapiens, UniProt P02751).
T3 construct: unrelated fibronectin domain EDB (67B89) could be observed; made in house; host or cells: E. coli
Description: ELISA specificity vs 67B89. As for the experimental part: as §1

In test [3] the target is T4, human collagen type V (h Col V) (Homo sapiens, UniProt P05997+P20908).
T4 construct: purchased Abcam ab7537
The test can be described thus: ELISA specificity vs human collagen type V. As for the experimental part:
as §1

T4 sequence (P20908 38-1605 limits assumed): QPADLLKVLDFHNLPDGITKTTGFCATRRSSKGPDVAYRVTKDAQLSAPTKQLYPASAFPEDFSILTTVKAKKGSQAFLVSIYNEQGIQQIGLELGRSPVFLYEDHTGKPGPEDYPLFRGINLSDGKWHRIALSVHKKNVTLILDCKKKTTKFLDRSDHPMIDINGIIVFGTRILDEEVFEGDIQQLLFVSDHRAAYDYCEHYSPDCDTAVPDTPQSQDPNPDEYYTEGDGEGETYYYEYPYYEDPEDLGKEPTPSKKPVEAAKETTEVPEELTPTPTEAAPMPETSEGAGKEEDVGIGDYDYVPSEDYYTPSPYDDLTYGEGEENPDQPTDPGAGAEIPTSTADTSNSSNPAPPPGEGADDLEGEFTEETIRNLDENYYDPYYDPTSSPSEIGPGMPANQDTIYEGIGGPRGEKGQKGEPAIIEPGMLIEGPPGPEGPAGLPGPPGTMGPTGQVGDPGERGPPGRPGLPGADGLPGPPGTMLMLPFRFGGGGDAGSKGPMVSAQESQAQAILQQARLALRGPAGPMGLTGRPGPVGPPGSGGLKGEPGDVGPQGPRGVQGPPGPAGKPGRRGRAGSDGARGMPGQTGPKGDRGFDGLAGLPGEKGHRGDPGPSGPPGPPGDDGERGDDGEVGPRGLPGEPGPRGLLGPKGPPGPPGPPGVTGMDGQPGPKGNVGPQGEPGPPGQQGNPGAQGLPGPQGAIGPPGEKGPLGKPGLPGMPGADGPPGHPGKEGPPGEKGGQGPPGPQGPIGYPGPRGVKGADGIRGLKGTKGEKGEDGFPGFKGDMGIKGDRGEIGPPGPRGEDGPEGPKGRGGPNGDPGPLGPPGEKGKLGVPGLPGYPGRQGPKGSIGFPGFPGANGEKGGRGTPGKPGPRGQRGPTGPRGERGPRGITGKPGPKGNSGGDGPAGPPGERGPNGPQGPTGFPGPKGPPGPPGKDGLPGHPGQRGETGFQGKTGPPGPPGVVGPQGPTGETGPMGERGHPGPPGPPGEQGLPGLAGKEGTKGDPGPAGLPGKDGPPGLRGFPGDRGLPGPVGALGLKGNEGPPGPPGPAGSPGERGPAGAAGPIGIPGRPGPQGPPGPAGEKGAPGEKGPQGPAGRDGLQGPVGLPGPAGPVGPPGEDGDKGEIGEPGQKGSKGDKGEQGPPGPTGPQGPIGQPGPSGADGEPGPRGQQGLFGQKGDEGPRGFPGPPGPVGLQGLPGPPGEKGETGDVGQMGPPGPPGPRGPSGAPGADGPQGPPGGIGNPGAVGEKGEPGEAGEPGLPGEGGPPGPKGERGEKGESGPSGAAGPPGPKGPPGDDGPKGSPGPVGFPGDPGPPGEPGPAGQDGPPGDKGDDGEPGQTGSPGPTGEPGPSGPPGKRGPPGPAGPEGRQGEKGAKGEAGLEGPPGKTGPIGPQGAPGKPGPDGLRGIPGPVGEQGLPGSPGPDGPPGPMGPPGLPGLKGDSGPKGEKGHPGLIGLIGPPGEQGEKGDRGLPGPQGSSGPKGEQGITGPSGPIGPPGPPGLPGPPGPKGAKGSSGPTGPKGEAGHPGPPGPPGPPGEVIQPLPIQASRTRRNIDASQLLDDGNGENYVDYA
T4 sequence (P05997 27-1229 limits assumed): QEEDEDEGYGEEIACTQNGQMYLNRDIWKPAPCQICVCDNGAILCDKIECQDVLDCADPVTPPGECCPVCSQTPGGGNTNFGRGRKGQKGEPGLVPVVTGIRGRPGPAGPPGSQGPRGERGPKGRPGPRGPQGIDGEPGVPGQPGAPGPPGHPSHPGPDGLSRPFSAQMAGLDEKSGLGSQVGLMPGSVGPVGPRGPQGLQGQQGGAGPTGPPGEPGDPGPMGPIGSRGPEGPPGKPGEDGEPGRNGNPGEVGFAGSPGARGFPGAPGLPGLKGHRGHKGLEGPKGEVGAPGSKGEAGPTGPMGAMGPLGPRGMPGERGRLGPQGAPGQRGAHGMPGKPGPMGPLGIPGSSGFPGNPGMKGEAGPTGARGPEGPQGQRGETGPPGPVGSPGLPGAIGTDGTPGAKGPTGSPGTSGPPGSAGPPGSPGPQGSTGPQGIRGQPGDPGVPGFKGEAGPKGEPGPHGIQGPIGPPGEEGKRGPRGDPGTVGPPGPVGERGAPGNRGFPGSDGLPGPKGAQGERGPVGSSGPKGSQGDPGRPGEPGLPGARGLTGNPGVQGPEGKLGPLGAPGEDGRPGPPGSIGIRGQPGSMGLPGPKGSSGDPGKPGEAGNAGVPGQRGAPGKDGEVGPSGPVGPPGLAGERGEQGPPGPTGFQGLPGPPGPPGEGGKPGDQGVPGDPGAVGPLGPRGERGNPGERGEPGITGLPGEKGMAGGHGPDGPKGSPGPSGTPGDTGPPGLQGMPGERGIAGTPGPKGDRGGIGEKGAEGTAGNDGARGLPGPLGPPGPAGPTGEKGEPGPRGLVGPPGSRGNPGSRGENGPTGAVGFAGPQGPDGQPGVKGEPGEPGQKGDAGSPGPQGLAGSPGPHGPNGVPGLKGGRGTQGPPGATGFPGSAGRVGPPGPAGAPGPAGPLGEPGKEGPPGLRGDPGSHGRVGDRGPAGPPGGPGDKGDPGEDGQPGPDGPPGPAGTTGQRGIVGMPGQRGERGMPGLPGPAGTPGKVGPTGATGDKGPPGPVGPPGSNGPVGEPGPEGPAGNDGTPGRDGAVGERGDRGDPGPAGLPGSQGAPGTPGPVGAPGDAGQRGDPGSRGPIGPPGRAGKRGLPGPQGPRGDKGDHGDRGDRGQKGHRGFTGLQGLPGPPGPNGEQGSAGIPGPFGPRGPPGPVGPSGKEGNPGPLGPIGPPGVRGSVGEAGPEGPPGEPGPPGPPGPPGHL
T1 sequence (P02458 182-1241): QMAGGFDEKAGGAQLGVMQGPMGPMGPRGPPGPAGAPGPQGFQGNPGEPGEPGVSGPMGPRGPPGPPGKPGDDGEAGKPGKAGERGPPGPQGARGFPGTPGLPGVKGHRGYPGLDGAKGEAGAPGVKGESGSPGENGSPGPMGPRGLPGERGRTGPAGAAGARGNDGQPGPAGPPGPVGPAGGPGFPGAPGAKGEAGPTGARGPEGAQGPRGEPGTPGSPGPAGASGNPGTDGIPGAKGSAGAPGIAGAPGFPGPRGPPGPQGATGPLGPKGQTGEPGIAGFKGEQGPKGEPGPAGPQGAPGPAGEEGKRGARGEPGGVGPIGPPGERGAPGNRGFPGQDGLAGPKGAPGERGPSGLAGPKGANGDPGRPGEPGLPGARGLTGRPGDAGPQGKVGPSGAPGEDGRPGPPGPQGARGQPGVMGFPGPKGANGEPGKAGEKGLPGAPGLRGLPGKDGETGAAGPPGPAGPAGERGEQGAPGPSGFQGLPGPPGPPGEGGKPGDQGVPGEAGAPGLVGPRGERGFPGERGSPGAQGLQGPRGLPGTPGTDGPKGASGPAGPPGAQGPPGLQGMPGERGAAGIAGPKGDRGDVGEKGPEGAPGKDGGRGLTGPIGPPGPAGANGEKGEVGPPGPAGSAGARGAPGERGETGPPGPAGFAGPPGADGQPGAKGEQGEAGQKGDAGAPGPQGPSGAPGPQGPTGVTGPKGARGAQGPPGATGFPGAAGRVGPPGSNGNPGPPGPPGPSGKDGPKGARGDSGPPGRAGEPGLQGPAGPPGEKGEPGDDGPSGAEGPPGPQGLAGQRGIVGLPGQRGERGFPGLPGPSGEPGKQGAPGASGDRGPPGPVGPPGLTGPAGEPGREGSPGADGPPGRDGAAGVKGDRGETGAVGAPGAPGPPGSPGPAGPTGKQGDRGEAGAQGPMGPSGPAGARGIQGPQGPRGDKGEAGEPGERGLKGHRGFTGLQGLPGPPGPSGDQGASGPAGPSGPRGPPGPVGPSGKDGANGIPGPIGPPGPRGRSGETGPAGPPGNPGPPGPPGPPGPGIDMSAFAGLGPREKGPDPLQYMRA
T3 sequence (P02751 1089-1540 limits assumed): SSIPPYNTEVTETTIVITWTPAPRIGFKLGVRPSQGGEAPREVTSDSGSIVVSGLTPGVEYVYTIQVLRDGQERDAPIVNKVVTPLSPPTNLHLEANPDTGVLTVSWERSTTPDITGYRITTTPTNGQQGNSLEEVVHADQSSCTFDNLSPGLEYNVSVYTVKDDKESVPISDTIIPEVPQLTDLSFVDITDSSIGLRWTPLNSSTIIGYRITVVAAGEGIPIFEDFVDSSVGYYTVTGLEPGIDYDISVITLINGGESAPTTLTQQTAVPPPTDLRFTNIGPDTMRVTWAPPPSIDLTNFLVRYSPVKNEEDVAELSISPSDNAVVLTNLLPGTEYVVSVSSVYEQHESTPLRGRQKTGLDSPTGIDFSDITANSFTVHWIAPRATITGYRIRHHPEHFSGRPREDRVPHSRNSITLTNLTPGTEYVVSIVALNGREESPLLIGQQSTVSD

B1: CID 212000: dimer of SEQ ID NO: 2 (dimer with linker between the monomers) (protein)
chain: IAAKFDEAQSAADSEILHLPNLTEQQRHYFRRWLSDDPSVSTHILTQAQHLNDDQAPKGGGGSGGGGSGGGGSGGGGSIAAKFDEAQSAADSEILHLPNLTEQQRHYFRRWLSDDPSVSTHILTQAQHLNDDQAPKSAWSHPQFEK
modifications: Col2 binding protein (dimer of 211261) (CID212000)
As to B1, the “binding affinity (KD) to type II collagen by ELISA, in words” value in test [1] is on record as 1-2-digit nM. Also, the “binding to type III collagen (ELISA)” value in the test with human collagen type III was “No unspecific binding”. In test [2], the “binding to domain of fibronectin (67B89) (ELISA)” value is reported as “No unspecific binding”. In test [3], the “binding to type V collagen (ELISA)” value was “No unspecific binding”.

The values are drawn from US20230416345A1, “NEW TYPE II COLLAGEN BINDING PROTEINS” (Navigo Proteins GmbH, priority 2020, published 2023).
